# Measurements from article PMC8809517, “Cofactor-independent RNA editing by a synthetic S-type PPR protein”.
# Numbering of substitutions follows the chain as printed.
# T1: GFP-9S library array, motif 4 ND N98F;D124G (synthetic construct, N98F;D124G)
# T1 chain: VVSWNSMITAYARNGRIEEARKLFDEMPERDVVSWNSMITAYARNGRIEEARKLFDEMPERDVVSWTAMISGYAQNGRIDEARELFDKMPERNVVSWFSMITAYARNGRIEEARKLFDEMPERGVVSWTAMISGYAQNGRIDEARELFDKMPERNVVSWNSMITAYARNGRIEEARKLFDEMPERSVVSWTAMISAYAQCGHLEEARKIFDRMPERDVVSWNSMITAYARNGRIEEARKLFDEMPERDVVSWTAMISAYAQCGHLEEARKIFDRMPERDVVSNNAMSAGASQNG
# T2: GFP-9S library array, motif 4 ND N98L;D124Q (synthetic construct, N98L;D124Q)
# T2 chain: T1 chain with F98L, G124Q
# T3: GFP-9S library array, motif 4 ND N98P;D124R (synthetic construct, N98P;D124R)
# T3 chain: T1 chain with F98P, G124R
# T4: GFP-9S library array, motif 4 ND N98W;D124F (synthetic construct, N98W;D124F)
# T4 chain: T1 chain with F98W, G124F
# T5: GFP-9S library array, motif 4 ND N98P;D124N (synthetic construct, N98P;D124N)
# T5 chain: T1 chain with F98P, G124N
# How the values were obtained:
# Assay in all cases: high-throughput RNA pulldown from lysate on Ni-NTA beads; HRP: 50 mM Tris pH 8, 150 mM NaCl, 1 mM beta-mercaptoethanol, 50 ug/ml BSA, 3 ug/ml yeast RNA, 0.5% heparin; ITC and FP: Tris pH 8, 200 mM KCl, 5% glycerol; MST: 50 mM Tris pH 8, 200 mM NaCl, 1 mM DTT, BSA, heparin, 0.05% Tween 20
# Details in all cases: tags: N-terminal His-eGFP
# [1] = target: T1, GFP-9S library array, motif 4 ND …
# [2] = target: T2, GFP-9S library array, motif 4 ND …
# [3] = target: T3, GFP-9S library array, motif 4 ND …
# [4] = target: T4, GFP-9S library array, motif 4 ND …
# [5] = target: T5, GFP-9S library array, motif 4 ND …
Binder,Kd ([1]; label: 5' Cy5) [nM],Kd ([2]; label: 5' Cy5) [nM],Kd ([3]; label: 5' Cy5) [nM],Kd ([4]; label: 5' Cy5) [nM],Kd ([5]; label: 5' Cy5) [nM],Kd ([1]; label: 5' IRDye 800CW) [nM],Kd ([2]; label: 5' IRDye 800CW) [nM],Kd ([3]; label: 5' IRDye 800CW) [nM],Kd ([4]; label: 5' IRDye 800CW) [nM],Kd ([5]; label: 5' IRDye 800CW) [nM]
AUUACACGUGA (ssRNA) [Cy5-rpoA],74.1,60,151,95.8,172,,,,,
AUUAUACGUGA (ssRNA) [IR-rpoA-U],,,,,,124,58.9,245,273,136
AUUAAACGUGA (ssRNA) [IR-rpoA-A],,,,,,139,80,329,274,151
AUUAGACGUGA (ssRNA) [Cy5-rpoA-G],75.9,68.5,166,80.4,164,,,,,
